Molecular target: HBV S/preS1^16-42 chimeric antigen (Hepatitis B virus, genotype D) (UniProt P03138)
Assay: SDS-PAGE under non-reducing conditions with western blot; lysates of transfected HEK293T cells, -DTT, detected with anti-preS1 antibodies; dimers of ~50 kDa held by intermolecular disulfide bonds

Substance: HBV S/preS1^16-42 chimeric antigen (from UniProt P03138 16-42)
- stoichiometry N: 2
